Positions of bridges follow the written chain, without caps; N, C: chain ends. No end group written: not given here.
T1: hu-IL-2Rβ subunit (human, UniProt P14784 27-240, limits assumed)
T1 construct: also called human interleukin-2 receptor subunit β; CD122
T1 sequence (looked up): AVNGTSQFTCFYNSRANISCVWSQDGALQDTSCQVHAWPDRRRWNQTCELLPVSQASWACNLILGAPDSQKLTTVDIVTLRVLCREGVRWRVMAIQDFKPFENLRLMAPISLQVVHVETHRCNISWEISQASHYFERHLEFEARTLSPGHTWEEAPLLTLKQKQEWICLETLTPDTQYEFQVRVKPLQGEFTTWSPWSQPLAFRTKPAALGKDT


target: T1, hu-IL-2Rβ subunit; assay: phage ELISA competition assay

Binder	IC50 [µM]
WFPCWLAQLGELCDKE [SEQ ID NO 351]	< 100
HPVRYPCWVAQLGELCDLENGN [SEQ ID NO 246]	< 100
SRFWQPCWMAQLGELCHLDPQM [SEQ ID NO 242]	< 100
DLWQPCWMARLGELCDLKG [SEQ ID NO 249]	< 100
TGWWYPCWMAQLGELCDLQQT (disulfide 7-16 (inferred)) [SEQ ID NO 248]	< 100
WYPCGVAQPGDLCDLE [SEQ ID NO 251]	< 100
AHWSQPCWTAQLGELCDLDMGD [SEQ ID NO 245]	< 100
WYPCWIARVGELCDME (disulfide 4-13 (inferred)) [SEQ ID NO 342]	< 100
WYPCWIARVGELCDLE [SEQ ID NO 553]	< 100
WLPCWMAHLGQLCDLDLPGKSM [SEQ ID NO 96]	< 100
WYSCWIAQLGELCDLDDMGDRV (disulfide 4-13 (inferred)) [SEQ ID NO 350]	< 100
WDGWECGMDHDGWVCEFWGE [SEQ ID NO 253]	< 100
WYPCWLAQLGDLCDLD [SEQ ID NO 87]	< 100
WYPCWVAQLGELCDLE [SEQ ID NO 462]	< 100
WHPCWIAHLGELCDLE [SEQ ID NO 388]	< 100
WYPCWIAKLGELCDLE [SEQ ID NO 142]	< 100
WYPCWMARMGELCDLE [SEQ ID NO 384]	< 100
WYPCWMAHLGELCDLE [SEQ ID NO 474]	< 100
WYPCWVAKLGELCDLE [SEQ ID NO 472]	< 100
RYPCWIAQLGELCDLD [SEQ ID NO 387]	< 100
VWFPCWFAQLGDLCDLDQDP [SEQ ID NO 348]	< 100

Next, values leading:

IC50 [µM]	Binder
< 100	RWPWYPCEIARIGELCDLEQAN [SEQ ID NO 344]
< 100	FGAFYPCWKAQLGELCDLEPVT [SEQ ID NO 345]
< 100	WLPCWIASLGELCDLDTGKRQG [SEQ ID NO 95]
< 100	WYPCWIARVGELCDLEEGPVNR [SEQ ID NO 339]
< 100	ETLGSVWYPCWIASIGELCDLD [SEQ ID NO 349]
< 100	RREWYPCWIAQVGELCDLPLI [SEQ ID NO 343]
< 100	YLNFNPCWTAQLGELCDLASGE [SEQ ID NO 243]
< 100	QTGSYPCWIAHLGELCDLEGSA [SEQ ID NO 247]
< 100	MLGEWLCEMDQLGYLCYLDHGD [SEQ ID NO 252]
< 100	MGTGWQNYCRYAQLGELCLL [SEQ ID NO 250]
< 100	AVEFYPCWLARIGELCDLVEP [SEQ ID NO 340]
< 100	AGDWLPCWMAELGELCDLEGPT [SEQ ID NO 94]
< 100	QPAWLPCWLAQLGELCDLGTGA [SEQ ID NO 241]
< 100	WYPCWIAQLGELCDLDAKGQRR [SEQ ID NO 337]
< 100	WYPCWLAKLGELCDLDRAEALP [SEQ ID NO 347]
< 100	TNNFYPCWLAKLGDLCDFDDLN (disulfide 7-16 (inferred)) [SEQ ID NO 338]
< 100	WYPCWLAHLGELCDLE [SEQ ID NO 369]
< 100	WYPCWIAQLGELCDLE [SEQ ID NO 148]
< 100	WYPCWMARLGELCDLE [SEQ ID NO 137]
< 100	WYPCWIAHLGELCDLE [SEQ ID NO 341]
< 100	WYPCWLAQLGELCDLD [SEQ ID NO 130]
< 100	WYPCWIAQLGELCDLV [SEQ ID NO 352]
< 100	WHPCWIAQLGELCDLE [SEQ ID NO 147]
< 100	WYPCWLAQVGELCDLD [SEQ ID NO 554]
< 100	WYPCWLAQLGELCDLD [SEQ ID NO 361]
< 100	WYPCWMAQLGELCDMD (disulfide 4-13 (inferred)) [SEQ ID NO 376]
< 100	WYPCWLAHLGELCDLA [SEQ ID NO 395]
< 100	STGWYPCWIAEFGELCDLVKPH [SEQ ID NO 244]
< 100	HGRWFPCWMAQVGDLCDLEHSN [SEQ ID NO 346]
